According to article PMC8834124, “Enzymatic Preparation of Gentiooligosaccharides by a Thermophilic and Thermostable β-Glucosidase at a High Substrate Concentration” (Foods, 2022):

Columns and labels:
Assay in all cases: purified protein
Format in all cases: biochemical, Thermotoga sp. KOL6
[1] = tested on: OC[C@H]1O[C@@H](O[C@H]2[C@H](O)[C@@H](CO)OC(O)[C@@H]2O)[C@H](O)[C@@H](O)[C@@H]1O
[2] = tested on: OC[C@H]1O[C@@H](O[C@H]2C(O)O[C@H](CO)[C@@H](O)[C@@H]2O)[C@H](O)[C@@H](O)[C@@H]1O
[3] = tested on: OC[C@H]1O[C@@H](OC[C@H]2OC(O)[C@H](O)[C@@H](O)[C@@H]2O)[C@H](O)[C@@H](O)[C@@H]1O
[4] = tested on: O=[N+]([O-])c1ccc(O[C@@H]2O[C@H](CO)[C@@H](O)[C@H](O)[C@H]2O)cc1

Substance: β-glucosidase TsBgl1 (Thermotoga sp. KOL6)
- Km [1]: 2170 µM
- kcat [1]: 295 s⁻¹
- kcat/Km [1]: 136000 M⁻¹ s⁻¹
- Km [2]: 3950 µM
- kcat [2]: 218 s⁻¹
- kcat/Km [2]: 55300 M⁻¹ s⁻¹
- Km [3]: 3680 µM
- kcat [3]: 240 s⁻¹
- kcat/Km [3]: 65200 M⁻¹ s⁻¹
- Km [4]: 240 µM
- kcat [4]: 124 s⁻¹
- kcat/Km [4]: 509000 M⁻¹ s⁻¹
